Molecular target: T1, GST-SMAD4^R361H, Q13485
T1 chain: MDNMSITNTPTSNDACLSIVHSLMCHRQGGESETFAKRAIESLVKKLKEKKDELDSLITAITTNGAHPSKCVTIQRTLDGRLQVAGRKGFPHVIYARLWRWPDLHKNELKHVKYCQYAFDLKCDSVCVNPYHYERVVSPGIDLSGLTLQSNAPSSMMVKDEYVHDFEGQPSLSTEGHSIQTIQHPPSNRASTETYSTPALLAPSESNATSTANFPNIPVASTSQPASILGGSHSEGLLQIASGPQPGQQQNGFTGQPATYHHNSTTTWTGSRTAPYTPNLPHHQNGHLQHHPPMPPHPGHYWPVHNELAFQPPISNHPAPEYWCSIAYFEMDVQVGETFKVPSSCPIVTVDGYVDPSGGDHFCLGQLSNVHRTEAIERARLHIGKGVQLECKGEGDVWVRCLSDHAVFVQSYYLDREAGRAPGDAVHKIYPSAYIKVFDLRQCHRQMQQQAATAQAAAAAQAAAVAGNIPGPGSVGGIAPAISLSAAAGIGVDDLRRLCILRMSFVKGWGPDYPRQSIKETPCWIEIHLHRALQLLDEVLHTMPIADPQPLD
Test: pull-down
Conditions: remark: other sources report otherwise

EC50 of Go-6983 in enhancing the complex: 8.9 µM
EC50 of Ro-31-8220 in enhancing the complex: 2.1 µM
B1: Venus-flag-SMAD3, P84022 1-425 (natural protein)
chain: MSSILPFTPPIVKRLLGWKKGEQNGQEEKWCEKAVKSLVKKLKKTGQLDELEKAITTQNVNTKCITIPRSLDGRLQVSHRKGLPHVIYCRLWRWPDLHSHHELRAMELCEFAFNMKKDEVCVNPYHYQRVETPVLPPVLVPRHTEIPAEFPPLDDYSHSIPENTNFPAGIEPQSNIPETPPPGYLSEDGETSDHQMNHSMDAGSPNLSPNPMSPAHNNLDLQPVTYCEPAFWCSISYYELNQRVGETFHASQPSMTVDGFTDPSNSERFCLGLLSNVNRNAAVELTRRHIGRGVRLYYIGGEVFAECLSDSAIFVQSPNCNQRYGWHPATVCKIPPGCNLKIFNNQEFAALLAQSVNQGFEAVYQLTRMCTIRMSFVKGWGAEYRRQTVTSTPCWIELHLNGPLQWLDKVLTQMGSPSIRCSSVS

Reference: article PMC10053325
